T1: human Nectin-4, full length on cells (human, UniProt Q96NY8 32-510)
T1 construct: whole, on cells; T-47D cells positive for Nectin-4 expression; also called Nectin-4 on T-47D cells; CHO-Nectin-4
T1 sequence (looked up): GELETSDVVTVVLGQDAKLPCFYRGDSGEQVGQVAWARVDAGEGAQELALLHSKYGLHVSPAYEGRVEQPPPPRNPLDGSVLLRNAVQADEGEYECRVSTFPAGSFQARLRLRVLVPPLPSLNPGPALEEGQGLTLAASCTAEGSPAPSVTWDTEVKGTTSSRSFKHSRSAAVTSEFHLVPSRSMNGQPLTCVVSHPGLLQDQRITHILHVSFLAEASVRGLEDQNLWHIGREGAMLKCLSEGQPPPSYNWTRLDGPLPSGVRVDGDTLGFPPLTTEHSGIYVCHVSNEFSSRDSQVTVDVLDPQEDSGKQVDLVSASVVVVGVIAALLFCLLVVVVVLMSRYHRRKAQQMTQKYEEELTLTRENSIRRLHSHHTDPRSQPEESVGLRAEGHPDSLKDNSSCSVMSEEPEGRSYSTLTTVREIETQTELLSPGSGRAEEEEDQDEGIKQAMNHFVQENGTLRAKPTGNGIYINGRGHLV

T2: human Nectin-4 extracellular antigen hNectin-4-His (human, UniProt Q96NY8 32-349)
T2 construct: C-terminal 8xHis tag included
T2 sequence: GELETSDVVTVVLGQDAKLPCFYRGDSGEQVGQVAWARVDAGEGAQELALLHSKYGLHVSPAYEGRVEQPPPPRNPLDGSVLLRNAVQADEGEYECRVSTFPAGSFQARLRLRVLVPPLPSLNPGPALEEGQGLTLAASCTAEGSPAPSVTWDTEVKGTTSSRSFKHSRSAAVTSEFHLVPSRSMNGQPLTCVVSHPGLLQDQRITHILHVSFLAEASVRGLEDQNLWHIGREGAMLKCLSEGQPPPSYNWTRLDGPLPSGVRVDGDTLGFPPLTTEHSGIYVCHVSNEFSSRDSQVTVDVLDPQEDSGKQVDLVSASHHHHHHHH

B1: antibody 10F4-1 (antibody, human IgG1, kappa, V domains shown)
VH: EVQLVESGGGLVQPGGSLRLSCAASGDSFTNYWMSWVRQAPGKGLEWVSGISQGGSYAYYADSVKGRFTISRDNSKNTLYLQMNSLRAEDTAVYYCAREYSDVVDYVSVRTPLDYWGQGTLVTVSS
VL: DIQMTQSPSSLSASVGDRVTITCRASQGISSYLAWYQQKPGKAPKLLIYAASSLQSGVPSRFSGSGSGTDFTLTISSLQPEDFATYYCQQHYTTPPTFGQGTKVEIKR
B2: antibody 10F4-3 (antibody, human IgG1, kappa, V domains shown)
VH: EVQLVESGGGLVQPGGSLRLSCAASGFSFGDFAMSWVRQAPGKGLEWVSVIDGHTAYNSYADSVKGRFTISRDNSKNTLYLQMNSLRAEDTAVYYCAREYSDVVDYVSVRTPLDYWGQGTLVTVSS
VL: B1 VL
B3: antibody 10F4-1A1 (antibody, human IgG1, kappa, V domains shown)
VH: B1 VH with D27F, T30D, W33D, G50S, S52K, Q53P, G55S, S56A, A58K, Y59F
VL: B1 VL
B4: antibody 10F4-2C12 (antibody, human IgG1, kappa, V domains shown)
VH: B2 VH with F27Y, S28N, F32Y, A33S, G53T, H54T, T55S, N58T, S59R
VL: B1 VL
B5: antibody 10F4-1H11 (antibody, human IgG1, kappa, V domains shown)
VH: EVQLVESGGGLVQPGGSLRLSCAASGYTFTGFWMSWVRQAPGKGLEWVSSISPDSGTKHYADSVKGRFTISRDNSKNTLYLQMNSLRAEDTAVYYCAREYSDVVDYVSVRTPLDYWGQGTLVTVSS
VL: B1 VL
B6: antibody 10F4-1E1 (antibody, human IgG1, kappa, V domains shown)
VH: EVQLVESGGGLVQPGGSLRLSCAASGDIFGNYWMSWVRQAPGKGLEWVSSIDASSGNRFYADSVKGRFTISRDNSKNTLYLQMNSLRAEDTAVYYCAREYSDVVDYVSVRTPLDYWGQGTLVTVSS
VL: B1 VL
B7: antibody 10F4-1H6 (antibody, human IgG1, kappa, V domains shown)
VH: EVQLVESGGGLVQPGGSLRLSCAASGFNFYDYDMSWVRQAPGKGLEWVSGIKTHSGGNGYADSVKGRFTISRDNSKNTLYLQMNSLRAEDTAVYYCAREYSDVVDYVSVRTPLDYWGQGTLVTVSS
VL: B1 VL
B8: antibody 10F4-2C6 (antibody, human IgG1, kappa, V domains shown)
VH: B7 VH with Y30G, D31G, Y32F, T53Q, H54Y, S55K, G57Y, N58T, G59S
VL: B1 VL
B9: antibody 10F4-1C10 (antibody, human IgG1, kappa, V domains shown)
VH: B7 VH with F27Y, Y30G, D31S, H54Y, S55G, G57N, N58T, G59H
VL: B1 VL
B10: antibody 10F4-1F8 (antibody, human IgG1, kappa, V domains shown)
VH: B7 VH with F27Y, N28T, Y30T, G50S, K52I, H54D, S55G, N58A, G59F
VL: B1 VL
B11: antibody 10F4-1F1 (antibody, human IgG1, kappa, V domains shown)
VH: B1 VH with D27F, T30S, G50A, Q53P, G55D, S56G, Y57T, A58I, Y59F
VL: B1 VL
B12: antibody 10F4-2F11 (antibody, human IgG1, kappa, V domains shown)
VH: B7 VH with F27Y, Y30T, D31S, H54G, S55G, G57S, N58A, G59R
VL: B1 VL
B13: antibody 10F4-1C3 (antibody, human IgG1, kappa, V domains shown)
VH: B5 VH with T28S, T30S, G31D, F32Y, S52K, P53Q, D54T, S55G, T57V
VL: B1 VL
B14: antibody 10F4-1G7 (antibody, human IgG1, kappa, V domains shown)
VH: B7 VH with F27Y, Y30G, G50S, K52I, T53G, S55G, G56D, G57T, N58K, G59F
VL: B1 VL
B15: antibody 1F3-1H3 (antibody, human IgG1, kappa, V domains shown)
VH: EVQLVESGGGLVQPGGSLRLSCAASGFNFYNYGMSWVRQAPGKGLEWVSGIKPHSDVAHYADSVKGRFTISRDNSKNTLYLQMNSLRAEDTAVYYCARAELLAFDVYTASDYWGQGTLVTVSS
VL: B1 VL
B16: antibody 1G8-2B3 (antibody, human IgG1, kappa, V domains shown)
VH: EVQLVESGGGLVQPGGSLRLSCAASGYNFTTSAMSWVRQAPGKGLEWVSRIYQDSSTTDYADSVKGRFTISRDNSKNTLYLQMNSLRAEDTAVYYCARQTEDRSYGYDLDYWGQGTLVTVSS
VL: B1 VL
B17: antibody 1F3-2B9 (antibody, human IgG1, kappa, V domains shown)
VH: B15 VH with Y30D, N31S, G33A, S55T, V57D, A58I, H59Y
VL: B1 VL
B18: antibody 1F3-1G7 (antibody, human IgG1, kappa, V domains shown)
VH: B15 VH with F27D, N28I, Y30S, G33S, K52Y, H54S, S55G, V57S, A58R, H59R
VL: B1 VL

18 molecules from patent US20260144882A1 (BIO THERA SOLUTIONS, published 2026) can be followed below.

Residue numbers refer to the chain shown, from its start.

One assay has as its target T1, human Nectin-4, full length on cells. As to the kind of experiment: flow cytometry, T-47D cells, antibody bound on ice, 0 h at 37 C. On the procedure:
In this assay, the relative amount of antibodies remaining on the cell surface after co-incubation at 37° C. for a certain period of time was detected by FACS to reflect the endocytosis efficiency. The procedures are briefly described as follows: T-47D cells (human ductal breast cancer cells, derived from the Cell Bank of Chinese Academy of Sciences, Cat.No. TCHu 87); the antibodies of interest were adjusted to 10 µg/mL and co-incubated with the cells on ice for 1 h; the cells were washed 3 times with pre-cooled PBS, and then placed at 37° C. and incubated for 0 h, 2 h and 4 h; 0.2% N₃Na was added to stop the endocytosis reaction; the cells were washed with PBS thrice, followed by the addition of the PE-labeled anti-human Fc secondary antibody (Invitrogen 12-4998-82); the cells were incubated at 4° C. for 30 min; the red fluorescence signal was detected on a flow cytometer.
Background: A flow cytometer gives signals particle by particle.
Regarding B1, the “MFI (mean fluorescence intensity) 0 h” value stood at 58600 MFI.

In the case of B2, the “MFI (mean fluorescence intensity) 0 h” value amounted to 61200 MFI.

Another assay has as its target T2, human Nectin-4 extracellular antigen …. As to the kind of experiment: ELISA, coated hNectin-4-His. The source says: (§1) The binding activity of the antibodies was detected by ELISA.
(An ELISA detects its analyte on a solid surface through an enzyme-linked reagent.)
As usually defined, the EC50 is the concentration giving half of the maximal effect. B3 yielded an EC50 of 0.051 µg/mL.

As for B4, the EC50 was found to be 0.06 µg/mL.

B5 showed an EC50 of 0.059 µg/mL.

For the molecule B6, the EC50 stood at 0.067 µg/mL.

In turn, B7 displayed an EC50 of 0.063 µg/mL.

As to B8, the EC50 is 0.09 µg/mL.

In the case of B9, the EC50 worked out at 0.058 µg/mL.

In the case of B10, the EC50 amounted to 0.054 µg/mL.

Turning to B11, the EC50 was 0.057 µg/mL.

B12 showed an EC50 of 0.078 µg/mL.

B13: a half-maximal response (EC50) required 0.053 µg/mL.

Molecule B14 gave an EC50 of 0.068 µg/mL.

The next assay shares this target. Nature of the assay: SPR, antibody on Protein A chip, 1:1 fit. The text has this: In this study, the affinity of the antibodies for the human Nectin-4 extracellular antigen was detected by surface plasmon resonance (SPR) technique (BIAcore: GE Healthcare, T200).
In general terms: In SPR one partner is held on a chip, and binding of the other changes the refractive index at the surface.
In general, Kd refers to the equilibrium constant for the complex coming apart. Usually koff stands for the first-order rate constant of dissociation. Low readings indicate slow dissociation, high ones fast dissociation. What is called kon is a measure of how fast the partners come together. In the case of B1, the Kd worked out at 0.545 nM, the koff came to 0.000226 s⁻¹ and the kon came to 415000 M⁻¹ s⁻¹.

B15 had a Kd of 0.62 nM, a koff of 0.00105 s⁻¹ and a kon of 1.69e+06 M⁻¹ s⁻¹.

B3: the affinity, expressed as Kd, was 0.432 nM; the koff worked out at 0.000186 s⁻¹; the kon came out at 430000 M⁻¹ s⁻¹.

As for B16, binding was put at a Kd of 1.98 nM, the koff was found to be 0.00147 s⁻¹ and the kon was found to be 742000 M⁻¹ s⁻¹.

B4 came in with a Kd of 0.533 nM, a koff of 0.000304 s⁻¹ and a kon of 570000 M⁻¹ s⁻¹.

B5 gave a Kd of 0.605 nM, a koff of 0.000212 s⁻¹ and a kon of 350000 M⁻¹ s⁻¹.

Turning to B7, the Kd stood at 0.505 nM, the koff came to 0.000151 s⁻¹ and the kon amounted to 299000 M⁻¹ s⁻¹.

B17: the Kd was 0.552 nM, the koff worked out at 0.00101 s⁻¹ and the kon turned out to be 1.82e+06 M⁻¹ s⁻¹.

Turning to B8, the Kd worked out at 0.285 nM, the koff was found to be 8.36e-05 s⁻¹ and the kon turned out to be 294000 M⁻¹ s⁻¹.

As for B9, the affinity, expressed as Kd, was 0.435 nM; the koff worked out at 0.000116 s⁻¹; the kon stood at 265000 M⁻¹ s⁻¹.

On to B10, for which the Kd amounted to 0.558 nM, the koff was 0.000237 s⁻¹ and the kon stood at 424000 M⁻¹ s⁻¹.

In turn, B2 gave a dissociation constant (Kd) of 0.352 nM, a koff of 0.000122 s⁻¹ and a kon of 346000 M⁻¹ s⁻¹.

With B12, the Kd was found to be 0.396 nM, the koff amounted to 0.000161 s⁻¹ and the kon was found to be 406000 M⁻¹ s⁻¹.

For the molecule B13, binding was characterised by a dissociation constant (Kd) of 0.589 nM, the koff came out at 0.000218 s⁻¹ and the kon amounted to 370000 M⁻¹ s⁻¹.

For B14, binding was put at a Kd of 0.374 nM, the koff was 0.000145 s⁻¹ and the kon was found to be 389000 M⁻¹ s⁻¹.

Molecule B18 had a Kd of 0.743 nM, a koff of 0.000596 s⁻¹ and a kon of 802000 M⁻¹ s⁻¹.

The target is the same in a further assay. Nature of the assay: ELISA, coated hNectin-4-His. The source holds these as a separate data set.
Text: as §1
In turn, B15 displayed an EC50 of 0.008 µg/mL.

The molecule B16 returned an EC50 of 0.005 µg/mL.

With B17, a half-maximal response (EC50) required 0.009 µg/mL.

In turn, B18 gave an EC50 of 0.008 µg/mL.
